Source: publication doi:10.1101/2024.05.16.594462v2

Substrate: OC[C@H]1O[C@@H](n2cnc3c(O)ncnc32)[C@H](O)[C@@H]1O
Assay: purified protein
Conditions: […] hPNP

B1: human purine nucleoside phosphorylase (hPNP) (Homo sapiens) (protein)
chain: MENGYTYEDYKNTAEWLLSHTKHRPQVAIICGSGLGGLTDKLTQAQIFDYGEIPNFPRSTVPGHAGRLVFGFLNGRACVMMQGRFHMYEGYPLWKVTFPVRVFHLLGVDTLVVTNAAGGLNPKFEVGDIMLIRDHINLPGFSGQNPLRGPNDERFGDRFPAMSDAYDRTMRQRALSTWKQMGEQRELQEGTYVMVAGPSFETVAECRVLQKLGADAVGMSTVPEVIVARHCGLRVFGFSLITNKVIMDYESLEKANHEEVLAAGKQAAQKLEQFVSILMASIPLPDKAS
Km: 68.92 ± 4.08 µM
